Test results published in doi:10.64898/2025.12.31.697154.
Read-outs that look alike come from different tables or passages of the source.

Assays:
Experiment in all cases: FRET
[1] = target: OmSMAX1-D1M domain (Orobanche minor OF MAX2 1, D1M domain) (Orobanche minor)
[2] = target: OmSMAX1-D1M domain (Orobanche minor OF MAX2 1, D1M domain) (Orobanche minor); remark: listed apart in the source
[3] = target: OmSMAX1-D1M domain (Orobanche minor OF MAX2 1, D1M domain) (Orobanche minor); remark: listed apart in the source
[4] = target: OmSMAX1-D1M domain (Orobanche minor OF MAX2 1, D1M domain) (Orobanche minor); remark: listed apart in the source

| EC50 [1] | EC50 [2] | EC50 [3] | EC50 [4] | Substance |
| --- | --- | --- | --- | --- |
| 0.18 µM | 231 µM |  |  | OmKAI2d3 (Orobanche minor divergent 2 receptor d3) |
|  | 0.15 µM | 231 µM |  | OmKAI2d4 (Orobanche minor divergent 2 receptor d4) |
|  | 202 µM |  |  | OmKAI2d9 (Orobanche minor divergent 2 receptor d9) |
|  | 133 µM |  | 209 µM | OmKAI2d10 (Orobanche minor divergent 2 receptor d10) |
